Here are results for 2 molecules from PMC7402622 (Science (New York, N.y.), 2020).

In experiment [1] the target is T1, stabilized SARS-CoV-2 S ectodomain trimer (SARS-CoV-2, Wuhan-Hu-1 (GenBank …, UniProt P0DTC2, stabilised)). Briefly: SPR.
Experiment [2] concerns the target T1, stabilized SARS-CoV-2 S ectodomain …. Description: cryo-EM structure.

B1: H014 humanized monoclonal antibody (IgG) (antibody, V domains shown)
VH: EVQLVQSGAEVKKPGATVKISCKVSGYSFSNYYIHWVKQAPGKSLEWIGYIDPFNGGTSDNLKFKGAATLTADTSTDTAYMELSSLRSEDTAVYYCARSEYDPYYVMDYWGQGTTVTVSS
VL: IVLTQSPFQSVSPKEKVTITCRASQSISSNLHWYQQKPDQSPKLLIKYASQSISGIPSRFSGSGSGTDFTLTINSLEAEDFGIYFCQQTNFWPYIFGQGTKLEIL
In the case of B1, in experiment [1], the binding result is given as “binds”.

B2: H014 Fab fragment (Fab, V domains shown)
VH: EVQLVQSGAEVKKPGATVKISCKVSGYSFSNYYIHWVKQAPGKSLEWIGYIDPFNGGTSDNLKFKGAATLTADTSTDTAYMELSSLRSEDTAVYYCARSEYDPYYVMDYWGQGTTVTVSS
VL: IVLTQSPFQSVSPKEKVTITCRASQSISSNLHWYQQKPDQSPKLLIKYASQSISGIPSRFSGSGSGTDFTLTINSLEAEDFGIYFCQQTNFWPYIFGQGTKLEIL
For B2, the binding result in experiment [2] was “binds”.
